What was measured:
metastatic cancer = experiment: Oral rhLF in human patients with metastatic cancer, tumor size by CT; type: in vivo
Protocol: Recombinant human lactoferrin was orally administered to human patients with a range of metastatic cancer types that had failed standard chemotherapy in two different studies conducted in multiple centers in four countries (Argentina, Brazil, Chile, U.S.) RhLF was administered at doses of 1.5 to 9 grams daily in two divided doses in cycles of 14 each with a 14 day gap.
Tumor size progression was monitored through CT scans and tumor markers where available. CT scans were performed at baseline and after each 8-week period once treatment was initiated, and also compared with a pre-baseline scan conducted prior to enrollment in the study. Tumor markers are measured every 4 weeks. Blood samples were collected to measure subclasses of circulating lymphocytes and NK cell activity. Plasma, serum and blood cell extract samples were collected to measure circulating IL-18, IL-1, IL-2, and IL-4, IL-5, IL-10, IL-12 and IFN-γ.

IL-18 = IL-18 levels in small intestine and serum after oral rhLF or bLF (ELISA); type: in vivo, mice; settings: for IL-18 level, Intestinal Extract / IL-18 level, Serum: 24 h after last dose
Protocol: Recombinant human lactoferrin and bovine lactoferrin were orally administered to mice, and the production of IL-18 in the small intestine was measured.
Mice were treated for three days daily with 65 mg/kg/day of rhLF, 300 mg/kg/day of rhLF or 300 mg/kg/day of bLF. For a control, mice were only administered the pharmaceutical carrier. Twenty-four hours following administration of the LF or control for 3 days, animals were weighed and blood and serum were collected. Serum was used for cytokine ELISA assays.
Also, at these time points, animals were sacrificed and the small intestinal tissue was removed for further analysis. Small intestinal epithelium was homogenized using a lysis buffer consisting of PBS, 1% Nonidet P-40, 0.5% sodium deoxycholate, and 0.1% sodium dodecyl sulphate containing 10 μg/ml PhenylMetheylsulfonyl fluoride. Homogenate was centrifuged at 15,000 rpm for 10 minutes and the supernatant stored at −80 C till it was tested for IL-18 levels.

[1] = oral 65 mg/kg/day for three days
[2] = oral 65 mg/kg/day rhLF versus 300 mg/kg bLF
[3] = oral 300 mg/kg/day for three days
[4] = oral 300 mg/kg/day rhLF versus 300 mg/kg bLF

B1: rhLF: recombinant human lactoferrin, a single chain metal binding glycoprotein (protein, UniProt P02788 20-710, looked up)
Lactotransferrin: GRRRSVQWCAVSQPEATKCFQWQRNMRKVRGPPVSCIKRDSPIQCIQAIAENRADAVTLDGGFIYEAGLAPYKLRPVAAEVYGTERQPRTHYYAVAVVKKGGSFQLNELQGLKSCHTGLRRTAGWNVPIGTLRPFLNWTGPPEPIEAAVARFFSASCVPGADKGQFPNLCRLCAGTGENKCAFSSQEPYFSYSGAFKCLRDGAGDVAFIRESTVFEDLSDEAERDEYELLCPDNTRKPVDKFKDCHLARVPSHAVVARSVNGKEDAIWNLLRQAQEKFGKDKSPKFQLFGSPSGQKDLLFKDSAIGFSRVPPRIDSGLYLGSGYFTAIQNLRKSEEEVAARRARVVWCAVGEQELRKCNQWSGLSEGSVTCSSASTTEDCIALVLKGEADAMSLDGGYVYTAGKCGLVPVLAENYKSQQSSDPDPNCVDRPVEGYLAVAVVRRSDTSLTWNSVKGKKSCHTAVDRTAGWNIPMGLLFNQTGSCKFDEYFSQSCAPGSDPRSNLCALCIGDEQGENKCVPNSNERYYGYTGAFRCLAENAGDVAFVKDVTVLQNTDGNNNEAWAKDLKLADFALLCLDGKRKPVTEARSCHLAMAPNHAVVSRMDKVERLKQVLLHQQAKFGRNGSDCPDKFCLFQSETKNLLFNDNTECLARLHGKTTYEKYLGPQYVAGITNLKKCSTSPLLEACEFLRK
Post Treatment 1 % Growth of tumor (metastatic cancer; Patient # 007, Lung, 7.5 weeks, pretreatment 160% (5.5 weeks)): 13% | Post Treatment 2 % Growth of tumor (metastatic cancer; Patient # 007, Lung, 8.5 weeks, pretreatment 160% (5.5 weeks)): 12% | Post Treatment 2 % Growth of tumor (metastatic cancer; Patient # 102, Ovarian, 8.5 weeks, pretreatment 30% (21 weeks)): −7% | Post Treatment 1 % Growth of tumor (metastatic cancer; Patient # 102, Ovarian, 10.5 weeks, pretreatment 30% (21 weeks)): −5% | Post Treatment 2 % Growth of tumor (metastatic cancer; Patient # 104, Gastric, 7 weeks, pretreatment 25% (5.5 weeks)): −5% | Post Treatment 1 % Growth of tumor (metastatic cancer; Patient # 104, Gastric, 10 weeks, pretreatment 25% (5.5 weeks)): 10% | Post Treatment 1 % Growth of tumor (metastatic cancer; Patient # 106, Melanoma, 11 weeks, pretreatment 24% (19 weeks)): −18% | Post Treatment 2 % Growth of tumor (metastatic cancer; Patient # 204, Breast, 6.5 weeks, pretreatment 40% (8 weeks)): 0% | Post Treatment 1 % Growth of tumor (metastatic cancer; Patient # 204, Breast, 10 weeks, pretreatment 40% (8 weeks)): 0% | patients with stable disease by the RECIST criteria (metastatic cancer; oral 1.5 to 9 grams daily, nine of nineteen evaluable patients, first post-treatment scan): 47% | IL-18 Intestinal Extract % Increase Over Control (IL-18; [1]): 725% | IL-18 Serum % Increase Over Control (IL-18; [1]): 84% | IL-18 level, Intestinal Extract (IL-18; [1]): 7,879 pg | IL-18 level, Serum (IL-18; [1]): 259 pg | IL-18 Intestinal Extract % Increase Over Blf (IL-18; [2]): 75% | IL-18 Serum % Increase Over Blf (IL-18; [2]): 94% | IL-18 Intestinal Extract % Increase Over Control (IL-18; [3]): 775% | IL-18 Serum % Increase Over Control (IL-18; [3]): 132% | IL-18 level, Intestinal Extract (IL-18; [3]): 8,350 pg | IL-18 level, Serum (IL-18; [3]): 328 pg | IL-18 Intestinal Extract % Increase Over Blf (IL-18; [4]): 85% | IL-18 Serum % Increase Over Blf (IL-18; [4]): 145% | amounts of IL-18 in both the serum and in the intestinal extract (IL-18; oral, both doses (65 and 300 mg/kg/day)): significantly enhanced
